Laboratory results from patent US20230181528A1, “COMPOSITIONS AND METHODS FOR TREATING NEOPLASIA” (The Broad Institute, Inc., priority 2020, published 2023).

Assays:
[1] = test system: VPS4 ATPase activity; assay: In vitro assay of ATPase activity of recombinant VPS4A and VPS4B constructs; type: biochemical; conditions: for fold change in turnover number between VPS4A and VPS4B construct with the same tag: VPS4B construct vs VPS4A construct; for Turnover (preliminary turnover number): recombinant tagged constructs, ATPase activity
Excerpt: Active oligomers of VPS4A and VPS4B were achieved through recombinant production and an in vitro assay was used to measure ATPas activity. […] Hcp1 (also known as His6 tag (SEQ ID NO: 32)) and FL (also known as FLAG tag) were used.

[2] = test system: PANC0403 pancreatic cancer cell line (VPS4B^loss); assay: Interferon dose-response curves with VPS4A suppression (CellTiter-Glo); type: cell-based, human; conditions: PANC0403 shVPS4A-2, co-treatment with 1 μM doxycycline, interferon titration for last 3 days
Experimental: (§1) To determine whether interferon treatment cooperate with VPS4A suppression, pancreatic cancer cell lines (KP4, PANC0403 and SNU213) stably expressing the doxycycline-inducible RNAi system against VPS4A (shVPS4A-2) were plated in white-walled 96-well plates at 100˜400 cells per well in 100 μL of 10% FBS-supplemented RPMI-1640 with L-glutamine with or without 1 μM doxycycline. Plates were incubated at 37° C., 5% CO2 for 3 days. […] At the same time, the doxycycline was refreshed. Cells were then incubated for an additional 3 days at 37° C., 5% CO2. Afterwards, 100 μL of premixed CellTiter-Glo (Promega) reagent was added to the wells to lyse cells by shaking the plates at 500 RPM for 10 minutes at room temperature. Luminescence for each well was then measured using an Envision plate reader (Perkin Elmer) to measure cell viability using the ATP-based readout. Luminescence signal for each well was normalized to the average signal from 6 wells treated without interferon for each cell line. These normalized values were then visualized using GraphPad Prism 8.3.0 fitted with a four-parameter log-based non-linear dose-response curve.

[3] = test system: SNU213 pancreatic cancer cell line (VPS4B^loss); assay: as above; type: cell-based, human; conditions: SNU213 shVPS4A-2, co-treatment with 1 μM doxycycline, interferon titration for last 3 days
Experimental: as §1

[4] = test system: VPS4B^neutral cell lines; assay: CRISPR-based cell viability assay with CellTiter-Glo (sgRNAs targeting VPS4A); parameters: species or system human; conditions: YAPC; seven-day CellTiter-Glo; scale 0 (cutting controls) to −1 (pan-essential sgRNAs); read from FIG. 2A
Experimental: For FIG. 2A, CellTiter-Glo viability assays were performed with stably expressing SpCas9 cell lines in 96 well plates. Cells were seeded and infected with sgRNA expressing lentivirus in wells on day 0, and selected with puromycin 24 hours later. Cell titer-Glo viability was read out 7 days after plating and infection. Prior to CellTiter-Glo viability assays, all cell lines were individually optimized for the assay including titrating both cell seeding density and volume of virus used for infection. All lentiviral preps for each sgRNA described below were batch controlled and titrated on three different cell lines representing cell lines with low, medium and high transduction efficiency. Optimal cell seeding densities and viral volumes for infections were then used for all subsequent viability assays using CRISPR. […]
Each assay was required to meet specific quality control metrics. […] For quality control of raw luminescence from CellTiter-Glo, infection efficiency (puro/no puro selection for each sgRNA) was required to be at least 80%, and all replicate wells had to be within 2 standard deviations of the mean for that sgRNA infection. […] SpCas9 activity from each cell line was also required to be greater than 50%, determined by the percent viability reduction of the average of the 3 pan-essential genes (sgPOLR2D, sgSF3B1 and sgKIF11) to negative controls (sgLacZ, sgChr2 and sgAAVS1). […]

In the case of “VPS4B-FL: recombinant VPS4B construct with FL (FLAG) tag”, the “fold change in turnover number between VPS4A and VPS4B construct with the same tag” value [1] is reported as greater than 1 fold and the “Turnover (preliminary turnover number)” value [1] is reported as 21 s⁻¹.

“VPS4B-Hcp1: recombinant VPS4B construct with Hcp1 tag” was tested, and the “fold change in turnover number between VPS4A and VPS4B construct with the same tag” value [1] was greater than 600 fold and the “Turnover (preliminary turnover number)” value [1] was 33280 s⁻¹.

With “interferon-γ: purified recombinant human interferon-γ (PeproTech)” the “sensitization to VPS4A suppression (6-day cell viability)” value [2] was “strongly sensitized” and the “sensitization to VPS4A suppression (6-day cell viability)” value [3] was “strongly sensitized”.

With “sgVPS4A2: sgRNA targeting VPS4A intron/exon junction, 5′-GGGCCGCACGAAGTACCTGG (SEQ ID NO: 40) (listed as DNA, chemistry not given here)” the “VPS4A dependency score (normalized viability effect)” value [4] was 0.3-0.4.

In the case of “sgVPS4A3: sgRNA targeting VPS4A intron/exon junction, 5′-ATTGTTATTCCCCACCCCTG (SEQ ID NO: 41) (listed as DNA, chemistry not given here)”, the “VPS4A dependency score (normalized viability effect)” value [4] is reported as 0.25-0.35.

B1: VPS4A-Hcp1: recombinant VPS4A construct with Hcp1 tag (protein, UniProt Q9UN37 1-437, looked up)
Vacuolar protein …: MTTSTLQKAIDLVTKATEEDKAKNYEEALRLYQHAVEYFLHAIKYEAHSDKAKESIRAKCVQYLDRAEKLKDYLRSKEKHGKKPVKENQSEGKGSDSDSEGDNPEKKKLQEQLMGAVVMEKPNIRWNDVAGLEGAKEALKEAVILPIKFPHLFTGKRTPWRGILLFGPPGTGKSYLAKAVATEANNSTFFSVSSSDLMSKWLGESEKLVKNLFELARQHKPSIIFIDEVDSLCGSRNENESEAARRIKTEFLVQMQGVGNNNDGTLVLGATNIPWVLDSAIRRRFEKRIYIPLPEEAARAQMFRLHLGSTPHNLTDANIHELARKTEGYSGADISIIVRDSLMQPVRKVQSATHFKKVCGPSRTNPSMMIDDLLTPCSPGDPGAMEMTWMDVPGDKLLEPVVCMSDMLRSLATTRPTVNADDLLKVKKFSEDFGQES
modifications: Hcp1 tag
With B1 the “Turnover (preliminary turnover number)” value [1] was 53 s⁻¹.

B2: VPS4A-FL: recombinant VPS4A construct with FL (FLAG) tag (protein, UniProt Q9UN37 1-437, looked up)
Vacuolar protein …: B1 Vacuolar protein …
modifications: FLAG tag
B2 was tested, and the “Turnover (preliminary turnover number)” value [1] was 10 s⁻¹.
